Experimental findings from the supplement of paper PMC9170038 are described below.

The data set relates to K4 kissing-loop RNA reporter. Nature of the data set: apparent KD of K4 kissing-loop reporter; higher = weaker reporter binding. To be noted: Eterna round: R107. Here is the method:
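RNA-MaP round R107: designed RNA switches with theophylline, tryptophan, arginine or FMN aptamers are transcribed on-chip within common flanks. They are titrated with a labelled K4 kissing-loop RNA reporter in RNA-MaP buffer (100 mM Tris pH 7.5, 80 mM KCl, 4 mM MgCl2), without ligand or with the indicated ligand. Median apparent KD per design.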

The mark [1] stands for this setting: input ligand: theophylline 20 uM.
Setting [2] is: input ligand: tryptophan 2.4 mM.
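Further: bound reporter read as fluorescence of individual clusters on recovered sequencing chips by microscopy, with normalized cluster intensities fitted with a binding model.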

On to “CCAGGUUGCCGCAACGACCUGGAUUUUAGGGAGGAUAUCCAGAGCAGGAGAAGGCCCAGUGAUGUUGGGCCUGUGGAGCCCAUAU [Ararensoza]”, for which the “apparent KD of K4 kissing-loop reporter” value is 274 nM (input ligand: FMN 200 uM); 149 nM (input ligand: arginine 13.2 mM); 176 nM (input ligand: none); 120 nM under setting [1]; 151 nM under setting [2].
As for “CCAUCGCUAUUCGAUACCAGUCAGGAGGUCUGUGACCUCCUAAUGGAGUGAUGUUCCUUAGACCCUUGGCAGCGAAUAGUGAUGG [#02 K4 Theophylline B Same State]”, the “apparent KD of K4 kissing-loop reporter” value reads like this: (input ligand: FMN 200 uM) 203 nM; (input ligand: arginine 13.2 mM) 196 nM; (input ligand: none) 221 nM; under setting [1], 141 nM; under setting [2], 202 nM.
As for “CCAUCGCUAUUCGAUACCAGUCAUAAAAUCUUUGGUUAAAUAAAGGAGUGAUGUUCCAAAGACCCUUGGCAGCGAAUAGUGAUGG [Theophylline B K4 6]”, the “apparent KD of K4 kissing-loop reporter” value by setting is: (input ligand: FMN 200 uM) 670 nM; (input ligand: arginine 13.2 mM) 624 nM; (input ligand: none) 695 nM; under setting [1], 887 nM; under setting [2], 780 nM.
As to “CCAUCGCUAUUCGAUACCAGUCAUAAAAUCUUUGGUUUAAUAAAGGAGUGAUGUUCCCAAGACCCUUGGCAGCGAAUAGUGAUGG [Theophylline B K4 8]”, the “apparent KD of K4 kissing-loop reporter” value worked out at 186 nM (input ligand: FMN 200 uM); 185 nM (input ligand: arginine 13.2 mM); 176 nM (input ligand: none); 197 nM under setting [1]; 190 nM under setting [2].
On to “CCAUGAGGAUAAGAUGAUAUCAUAACAGAAGGAGCGAGUGAUAACUCAGGUAGGUCGCUGAAUUUAUCGAGUGAUGUUCGAUGAA [Same State Arginine A GF11]”, for which the “apparent KD of K4 kissing-loop reporter” value stood at 194 nM (input ligand: FMN 200 uM); 164 nM (input ligand: arginine 13.2 mM); 193 nM (input ligand: none); 179 nM under setting [1]; 164 nM under setting [2].
Regarding “CCAUUCAUCAGAAGGAGCGUCAAGUGAUGCUAUCCAGUGAUGUUGGAUAGCACGGAACAGUGACAGGUAGGUCGCUGAUGAGAGC [Arg B SS t8]”, the “apparent KD of K4 kissing-loop reporter” value runs as follows: (input ligand: FMN 200 uM) 121 nM; (input ligand: arginine 13.2 mM) 106 nM; (input ligand: none) 115 nM; under setting [1], 95.7 nM; under setting [2], 131 nM.
Regarding “CCAUUCUGUUACGAUACCAGUCAAAUAUAUUUGAUCAAUACCCUCGCCGAGUGAUGUUCGGACCCUUGGCAGCGUCUGGGACAGG [ccdfmullin]”, the “apparent KD of K4 kissing-loop reporter” value (input ligand: FMN 200 uM) was 537 nM; the “apparent KD of K4 kissing-loop reporter” value (input ligand: arginine 13.2 mM) was 561 nM; the “apparent KD of K4 kissing-loop reporter” value (input ligand: none) was 710 nM; the “apparent KD of K4 kissing-loop reporter” value under setting [1] came to 544 nM; the “apparent KD of K4 kissing-loop reporter” value under setting [2] is 596 nM.
As for “CCCAAAAUAUGCAGUGAUGUUGCAACCGAUACCAGUAUCGAAAGAUACCCUUGGCAGCGGAAAACCGCUACGUAAUUUAAAAGGG [Ex Theophylline A K4 17]”, the “apparent KD of K4 kissing-loop reporter” value runs as follows: (input ligand: FMN 200 uM) 308 nM; (input ligand: arginine 13.2 mM) 318 nM; (input ligand: none) 311 nM; under setting [1], 603 nM; under setting [2], 254 nM.
For the sequence “CCCAAAAUAUGCAGUGAUGUUGCAACUGAUACCAGUAUCGAAAGAUACCCUUGGCAGCGGAAAACCGCUACGUAAUUUAAAAGGG [Ex Theophylline A K4 18]”, the “apparent KD of K4 kissing-loop reporter” value (input ligand: FMN 200 uM) stood at 200 nM; the “apparent KD of K4 kissing-loop reporter” value (input ligand: arginine 13.2 mM) amounted to 292 nM; the “apparent KD of K4 kissing-loop reporter” value (input ligand: none) is 255 nM; the “apparent KD of K4 kissing-loop reporter” value under setting [1] was 340 nM; the “apparent KD of K4 kissing-loop reporter” value under setting [2] was determined as 187 nM.
As to “CCCAAGGGCGAACCGGUAUGAUCGACGGAUACCAGAGGCGAAAGCCUCCCUUGGCAGCCGGCUGUAGUGAUGUUACACUGGUUCU”, the “apparent KD of K4 kissing-loop reporter” value is, setting by setting: (input ligand: FMN 200 uM) 139 nM; (input ligand: arginine 13.2 mM) 98.9 nM; (input ligand: none) 168 nM; under setting [1], 186 nM; under setting [2], 143 nM.
As for “CCCGGUCCACGAAGGAGCGCCGUGCAGUGAUGUUGCAGUUAGAUCCAGUGAUGUUUGGGCCGGCAGGUAGGUCGCGUGGCCCGGG [Excusion Arginine B GF 24]”, the “apparent KD of K4 kissing-loop reporter” value turned out to be 199 nM (input ligand: FMN 200 uM); 197 nM (input ligand: arginine 13.2 mM); 250 nM (input ligand: none); 197 nM under setting [1]; 188 nM under setting [2].
Regarding “CCCUAAAUAUGCAGUGAUGUUGCAACUGAUACCAGUAUCGAAAGAUACCCUUGGCAGCGGAAAACCGCUACGUAAUUUAAUAGGG [Ex Theophylline A K4 20]”, the “apparent KD of K4 kissing-loop reporter” value (input ligand: FMN 200 uM) was 294 nM; the “apparent KD of K4 kissing-loop reporter” value (input ligand: arginine 13.2 mM) amounted to 393 nM; the “apparent KD of K4 kissing-loop reporter” value (input ligand: none) was found to be 387 nM; the “apparent KD of K4 kissing-loop reporter” value under setting [1] came to 402 nM; the “apparent KD of K4 kissing-loop reporter” value under setting [2] stood at 285 nM.
For “CCCUCACGAGUGAUGUUCGUAGGGUACAGUCAGGAUAUCAUGCGGUUGAGAAGGGACAGAAAGGGCGGCCACGGGUUGCUCAUUU [Issogeso]”, in that order: 200 nM, 352 nM, 343 nM, 492 nM and 530 nM.
For the sequence “CCCUCACGAGUGAUGUUCGUAGGGUACAGUCAGGAUAUCAUGCGGUUGAGAAGGGACAGAGAAGGCGGCCACGGGUUGCUUAUCU [Ussoat]”, the “apparent KD of K4 kissing-loop reporter” value was found to be 215 nM (input ligand: FMN 200 uM); 258 nM (input ligand: arginine 13.2 mM); 342 nM (input ligand: none); 388 nM under setting [1]; 308 nM under setting [2].
As to “CCGACUGCAGGAAGGAGCGGCGGUUGGAGUGAUGUUCCGGGUAGUGAUGUUACCAAACUCCGCCAGGUAGGUCGCCUGUUGCUCG [Same State Arginine B GF10]”, the “apparent KD of K4 kissing-loop reporter” value (input ligand: FMN 200 uM) was found to be 151 nM; the “apparent KD of K4 kissing-loop reporter” value (input ligand: arginine 13.2 mM) was found to be 112 nM; the “apparent KD of K4 kissing-loop reporter” value (input ligand: none) was 165 nM; the “apparent KD of K4 kissing-loop reporter” value under setting [1] was 179 nM; the “apparent KD of K4 kissing-loop reporter” value under setting [2] was found to be 144 nM.
For “CCGAGCCUGACGUAAGUCAGGCUCUGCGAGCGAGGACCGGUACGGCCGCCACUCGGUGCAGUGAUGUUGCAUGGCCGCAAGGCCG [#2 Exclusion - Tryptophan A Attempt #23 (HarryS)]”, in that order: 293 nM, 274 nM, 235 nM, 235 nM and 351 nM.
For “CCGCCGGUCGGAAGGAGCGCACGCCAGAGUGAUGUUCUGGCGCGGGCACUUUAUGCCCGCGUGCAGGUAGGUCGCCGAUUCUGGC [Mabema]”, in that order: 464 nM, 426 nM, 445 nM, 446 nM and 417 nM.
For “CCGCCGGUCGGAAGGAGCGCACGCCAGAGUGAUGUUCUGGCGCGGGCAUUUUGUGCCCGCGUGCAGGUAGGUCGCCGAUUCUGGC [Quxeorti]”, in that order: 602 nM, 414 nM, 427 nM, 452 nM and 498 nM.
For the sequence “CCGCUACCCUCAGGAUAUUAAAUAUUAGUGAUGUUAGUAAACCGAUGGCGAAAGCCAUCGGUAUGUUGAGAAGGGAGGGUAGCGG [whbob_SS_FMNB__2th197]”, the “apparent KD of K4 kissing-loop reporter” value (input ligand: FMN 200 uM) worked out at 403 nM; the “apparent KD of K4 kissing-loop reporter” value (input ligand: arginine 13.2 mM) was determined as 1810 nM; the “apparent KD of K4 kissing-loop reporter” value (input ligand: none) was determined as 2240 nM; the “apparent KD of K4 kissing-loop reporter” value under setting [1] was 891 nM; the “apparent KD of K4 kissing-loop reporter” value under setting [2] came out at 880 nM.
As for “CCGCUGCCCUCAGGAUAUUAAGUAUUAGUGAUGUUAGUAAACCGAUGGCGAAAGCCAUCGGUAUGUUGAGAAGGGAGGGUAGCGG [whbob_SS_FMNB__2th199]”, the “apparent KD of K4 kissing-loop reporter” value is 370 nM (input ligand: FMN 200 uM); 627 nM (input ligand: arginine 13.2 mM); 662 nM (input ligand: none); 1140 nM under setting [1]; 550 nM under setting [2].
Regarding “CCGGGCGGCCGAAGGAGCGGGCGGACCCGAGUGAUGUUCGGGUGGACCGUGAGGUCCGGUGCCCAGGUAGGUCGCGGUUCCGCCC [#2 Same State - Arginine B Attempt #5 (HarryS)]”, the “apparent KD of K4 kissing-loop reporter” value is 117 nM (input ligand: FMN 200 uM); 123 nM (input ligand: arginine 13.2 mM); 129 nM (input ligand: none); 118 nM under setting [1]; 120 nM under setting [2].
For the sequence “CCUAGUCGGAUACUCAAUCCAAUGCGAGAUACCAGCGGUCUUACGCGCCCUUGGCAGCUCAUAAUGAUGAACCAGUGAUGUUGGG [theeternabot_sameState_KL_Theo_A_40]”, the “apparent KD of K4 kissing-loop reporter” value reads like this: (input ligand: FMN 200 uM) 423 nM; (input ligand: arginine 13.2 mM) 268 nM; (input ligand: none) 397 nM; under setting [1], 446 nM; under setting [2], 368 nM.
